Experimental data published in patent publication US20230018405A1.
Ends that are not written are not given here. EGFP = GFP fused N-terminally (GFP-linker-3.2iPA), EGFP per filing

Experiments:
[1] = molecular target: human wide-type Cav3.2 (human) (UniProt O95180); test: cell-based or functional assay
rat Cav3.2 (rat) = rat Cav3.2 (rat) (UniProt Q9EQ60); test: cell-based or functional assay
Sequence of UniProt Q9EQ60 (Q9EQ60 whole entry): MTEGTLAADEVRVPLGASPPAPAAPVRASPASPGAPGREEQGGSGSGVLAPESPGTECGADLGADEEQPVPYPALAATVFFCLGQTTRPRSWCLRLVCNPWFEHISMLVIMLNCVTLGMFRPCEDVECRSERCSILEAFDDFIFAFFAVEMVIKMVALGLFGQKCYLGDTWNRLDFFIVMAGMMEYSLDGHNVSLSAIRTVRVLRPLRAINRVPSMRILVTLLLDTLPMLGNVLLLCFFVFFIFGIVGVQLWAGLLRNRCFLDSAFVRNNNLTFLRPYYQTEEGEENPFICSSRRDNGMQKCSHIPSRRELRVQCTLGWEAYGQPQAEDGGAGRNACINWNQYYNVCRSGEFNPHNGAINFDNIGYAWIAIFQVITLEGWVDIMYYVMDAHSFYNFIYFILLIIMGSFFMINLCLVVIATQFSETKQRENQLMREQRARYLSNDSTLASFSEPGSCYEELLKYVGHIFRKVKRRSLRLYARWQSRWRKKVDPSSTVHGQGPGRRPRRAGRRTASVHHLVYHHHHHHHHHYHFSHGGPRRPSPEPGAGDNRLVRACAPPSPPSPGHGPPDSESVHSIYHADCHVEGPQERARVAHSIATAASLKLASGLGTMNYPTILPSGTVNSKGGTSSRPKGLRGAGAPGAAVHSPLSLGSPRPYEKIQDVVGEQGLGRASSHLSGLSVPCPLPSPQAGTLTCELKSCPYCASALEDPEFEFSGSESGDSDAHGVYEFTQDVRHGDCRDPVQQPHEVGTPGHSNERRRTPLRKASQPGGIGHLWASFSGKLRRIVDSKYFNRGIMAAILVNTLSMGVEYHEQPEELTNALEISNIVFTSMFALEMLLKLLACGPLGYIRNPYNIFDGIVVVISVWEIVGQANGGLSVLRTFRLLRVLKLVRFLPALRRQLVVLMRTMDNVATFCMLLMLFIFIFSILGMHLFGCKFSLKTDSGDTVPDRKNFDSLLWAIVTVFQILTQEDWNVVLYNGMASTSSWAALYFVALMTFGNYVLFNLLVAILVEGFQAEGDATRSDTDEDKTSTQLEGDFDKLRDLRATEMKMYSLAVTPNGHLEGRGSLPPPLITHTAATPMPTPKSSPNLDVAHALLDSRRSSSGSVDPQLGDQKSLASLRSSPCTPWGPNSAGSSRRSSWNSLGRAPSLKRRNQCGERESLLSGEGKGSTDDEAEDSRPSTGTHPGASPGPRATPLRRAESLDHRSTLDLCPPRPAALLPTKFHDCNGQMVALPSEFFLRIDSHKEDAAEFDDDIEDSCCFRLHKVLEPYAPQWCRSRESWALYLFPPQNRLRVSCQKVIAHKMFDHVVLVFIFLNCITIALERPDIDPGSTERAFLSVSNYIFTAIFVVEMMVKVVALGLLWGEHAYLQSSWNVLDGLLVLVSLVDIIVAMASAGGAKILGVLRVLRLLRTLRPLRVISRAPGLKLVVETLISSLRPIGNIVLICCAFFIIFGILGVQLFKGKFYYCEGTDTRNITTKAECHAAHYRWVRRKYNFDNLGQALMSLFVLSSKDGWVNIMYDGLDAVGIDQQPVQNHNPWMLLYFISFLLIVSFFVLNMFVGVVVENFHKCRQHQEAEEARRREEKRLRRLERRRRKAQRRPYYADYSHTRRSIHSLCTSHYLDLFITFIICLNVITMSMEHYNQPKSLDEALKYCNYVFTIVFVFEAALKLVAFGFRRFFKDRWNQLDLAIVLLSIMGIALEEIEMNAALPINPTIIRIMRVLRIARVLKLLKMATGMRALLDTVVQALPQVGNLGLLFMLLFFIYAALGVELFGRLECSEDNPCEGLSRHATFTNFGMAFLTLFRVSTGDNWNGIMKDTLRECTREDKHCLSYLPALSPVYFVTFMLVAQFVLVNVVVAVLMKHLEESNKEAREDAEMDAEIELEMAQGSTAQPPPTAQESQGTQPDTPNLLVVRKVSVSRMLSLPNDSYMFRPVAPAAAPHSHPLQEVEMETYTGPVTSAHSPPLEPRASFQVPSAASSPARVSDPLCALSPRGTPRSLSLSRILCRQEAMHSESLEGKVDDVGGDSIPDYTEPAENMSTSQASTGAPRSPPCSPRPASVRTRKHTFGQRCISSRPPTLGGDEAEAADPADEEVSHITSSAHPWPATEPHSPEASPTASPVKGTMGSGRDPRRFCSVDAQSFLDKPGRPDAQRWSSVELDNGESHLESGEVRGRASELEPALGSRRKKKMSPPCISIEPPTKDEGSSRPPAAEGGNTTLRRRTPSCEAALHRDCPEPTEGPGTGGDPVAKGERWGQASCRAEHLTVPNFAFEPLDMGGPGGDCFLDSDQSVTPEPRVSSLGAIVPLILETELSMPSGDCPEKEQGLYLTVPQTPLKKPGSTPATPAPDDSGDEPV

Sequence of UniProt O95180 (O95180 whole entry): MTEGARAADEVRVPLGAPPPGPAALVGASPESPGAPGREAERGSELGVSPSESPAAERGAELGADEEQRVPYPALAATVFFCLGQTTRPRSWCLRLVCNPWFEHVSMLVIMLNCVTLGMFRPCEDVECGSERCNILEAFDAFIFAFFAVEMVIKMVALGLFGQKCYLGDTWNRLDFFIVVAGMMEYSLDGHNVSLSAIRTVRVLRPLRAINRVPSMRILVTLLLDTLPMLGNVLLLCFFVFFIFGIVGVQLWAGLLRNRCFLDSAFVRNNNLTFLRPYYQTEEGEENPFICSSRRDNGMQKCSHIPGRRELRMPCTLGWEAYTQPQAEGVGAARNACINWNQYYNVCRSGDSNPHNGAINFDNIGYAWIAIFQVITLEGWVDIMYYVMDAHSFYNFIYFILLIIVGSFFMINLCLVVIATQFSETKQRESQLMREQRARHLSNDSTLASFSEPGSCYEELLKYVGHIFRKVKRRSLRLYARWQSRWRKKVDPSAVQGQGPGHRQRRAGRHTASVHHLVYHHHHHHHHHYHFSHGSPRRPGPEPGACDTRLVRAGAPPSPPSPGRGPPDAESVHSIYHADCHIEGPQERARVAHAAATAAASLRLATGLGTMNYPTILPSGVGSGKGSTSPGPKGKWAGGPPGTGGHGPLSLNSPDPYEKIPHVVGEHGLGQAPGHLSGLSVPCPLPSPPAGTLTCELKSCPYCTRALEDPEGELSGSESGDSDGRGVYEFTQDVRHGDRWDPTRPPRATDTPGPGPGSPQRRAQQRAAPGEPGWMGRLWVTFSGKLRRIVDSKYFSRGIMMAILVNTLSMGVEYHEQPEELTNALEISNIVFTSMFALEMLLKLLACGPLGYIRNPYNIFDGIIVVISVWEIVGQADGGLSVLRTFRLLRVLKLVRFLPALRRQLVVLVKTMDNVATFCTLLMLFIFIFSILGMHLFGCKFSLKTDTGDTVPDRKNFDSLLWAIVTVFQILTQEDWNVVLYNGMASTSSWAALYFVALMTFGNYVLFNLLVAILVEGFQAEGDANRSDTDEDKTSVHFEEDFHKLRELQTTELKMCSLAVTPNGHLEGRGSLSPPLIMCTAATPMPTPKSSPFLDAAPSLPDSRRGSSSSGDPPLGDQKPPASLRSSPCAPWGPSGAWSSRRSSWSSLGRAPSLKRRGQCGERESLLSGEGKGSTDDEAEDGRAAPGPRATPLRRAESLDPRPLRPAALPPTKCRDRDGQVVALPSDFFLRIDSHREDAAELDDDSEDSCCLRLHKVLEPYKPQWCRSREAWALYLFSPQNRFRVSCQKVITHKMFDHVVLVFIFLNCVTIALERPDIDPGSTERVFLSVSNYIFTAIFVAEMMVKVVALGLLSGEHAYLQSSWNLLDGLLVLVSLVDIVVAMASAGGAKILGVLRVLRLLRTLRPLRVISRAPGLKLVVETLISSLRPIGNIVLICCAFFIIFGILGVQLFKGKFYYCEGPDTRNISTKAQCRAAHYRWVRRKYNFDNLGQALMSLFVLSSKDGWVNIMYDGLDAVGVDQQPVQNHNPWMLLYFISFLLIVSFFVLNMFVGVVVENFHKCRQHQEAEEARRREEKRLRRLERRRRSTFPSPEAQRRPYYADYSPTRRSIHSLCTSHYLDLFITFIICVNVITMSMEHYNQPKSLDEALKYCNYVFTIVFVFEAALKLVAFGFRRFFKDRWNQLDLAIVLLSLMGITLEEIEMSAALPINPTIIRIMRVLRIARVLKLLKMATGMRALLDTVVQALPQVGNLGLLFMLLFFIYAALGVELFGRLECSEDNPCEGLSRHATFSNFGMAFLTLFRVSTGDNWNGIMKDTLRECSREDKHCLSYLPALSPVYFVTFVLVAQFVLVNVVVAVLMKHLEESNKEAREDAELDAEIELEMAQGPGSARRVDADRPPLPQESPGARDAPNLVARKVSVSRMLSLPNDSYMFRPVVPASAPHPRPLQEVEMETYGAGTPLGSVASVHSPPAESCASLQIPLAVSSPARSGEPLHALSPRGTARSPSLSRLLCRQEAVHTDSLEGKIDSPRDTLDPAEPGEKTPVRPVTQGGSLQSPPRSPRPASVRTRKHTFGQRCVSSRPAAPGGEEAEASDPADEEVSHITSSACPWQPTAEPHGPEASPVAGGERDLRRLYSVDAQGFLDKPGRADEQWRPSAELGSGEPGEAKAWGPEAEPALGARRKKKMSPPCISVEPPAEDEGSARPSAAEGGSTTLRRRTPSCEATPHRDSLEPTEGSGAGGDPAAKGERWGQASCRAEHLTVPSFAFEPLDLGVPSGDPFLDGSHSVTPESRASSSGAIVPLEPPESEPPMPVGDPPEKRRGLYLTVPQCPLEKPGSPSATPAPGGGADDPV

| Binder | Activation curves (G/Gmax), V½ [1] [mV] | Inactivation curves (I/Imax), V½ [1] [mV] | Peak T-type calcium currents, HEK3.2 cells (second institution) [1] [pA/pF] | reduction of peak Cav3.2 current density (ICa3.2), whole-cell voltage-clamp, HEK3.2 cells [1] [%] | inhibition of peak LVA ICa (pA/pF), dissociated rat DRG neurons after AAV6 injection (rat Cav3.2 (rat)) [%] | enhancement of peak LVA ICa, dissociated rat DRG neurons after AAV6 injection (rat Cav3.2 (rat)) [%] |
| --- | --- | --- | --- | --- | --- | --- |
| {EGFP}-GLRSRAQASNSAVDGTAGPGSRRSSWNSLGRAPSLKRR (designed binder, not shown: large carriers) [GFP3.2iPA1] | -56.1 | -69.8 | 20.2 | 70 | 70 | – |
| GLRSRAQASNSAVDGTAGPGSPAAPVRASPASPGAPGREEQ (designed binder, not shown: large carriers) [GFP3.2NP] | -54.1 | -64.9 | 41.1 | – | – | – |
| {EGFP}-GLRSRAQASNSAVDGTAGPGSRRREEKRLRRLERRRRKAQRRP (designed binder, not shown: large carriers) [GFP3.2iPA2] | -54.6 | -68.8 | 11.8 | 60 | 60 | – |
| {EGFP}-GLRSRAQASNSAVDGTAGPGSKRRSLRLYARWQSRWRKK (designed binder, not shown: large carriers) [GFP3.2iPA3] | – | – | – | – | – | 30 |
| {EGFP}-GLRSRAQASNSAVDGTAGPGSRGRASELEPALGSRRKKKMSPP (designed binder, not shown: large carriers) [GFP3.2iPA4] | – | – | – | 40 | – | – |
